Our source for the Fold diff values is patent US20220332804A1 (CSL INNOVATION, published 2022).

Common to all, as to experiment: SPR; KD relative to WT C2;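 note: biacore SPR at 37 °C, anti-C2 mAbs captured on an anti-human IgG chip, alanine or serine C2 surface mutants tested, KD from 1:1 fit compared with wild-type C2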
A general note: SPR reads the build-up and loss of mass on a sensor chip optically.

The target of one assay is T1, human C2 Q447A (human, UniProt P06681 21-752).
T1 sequence: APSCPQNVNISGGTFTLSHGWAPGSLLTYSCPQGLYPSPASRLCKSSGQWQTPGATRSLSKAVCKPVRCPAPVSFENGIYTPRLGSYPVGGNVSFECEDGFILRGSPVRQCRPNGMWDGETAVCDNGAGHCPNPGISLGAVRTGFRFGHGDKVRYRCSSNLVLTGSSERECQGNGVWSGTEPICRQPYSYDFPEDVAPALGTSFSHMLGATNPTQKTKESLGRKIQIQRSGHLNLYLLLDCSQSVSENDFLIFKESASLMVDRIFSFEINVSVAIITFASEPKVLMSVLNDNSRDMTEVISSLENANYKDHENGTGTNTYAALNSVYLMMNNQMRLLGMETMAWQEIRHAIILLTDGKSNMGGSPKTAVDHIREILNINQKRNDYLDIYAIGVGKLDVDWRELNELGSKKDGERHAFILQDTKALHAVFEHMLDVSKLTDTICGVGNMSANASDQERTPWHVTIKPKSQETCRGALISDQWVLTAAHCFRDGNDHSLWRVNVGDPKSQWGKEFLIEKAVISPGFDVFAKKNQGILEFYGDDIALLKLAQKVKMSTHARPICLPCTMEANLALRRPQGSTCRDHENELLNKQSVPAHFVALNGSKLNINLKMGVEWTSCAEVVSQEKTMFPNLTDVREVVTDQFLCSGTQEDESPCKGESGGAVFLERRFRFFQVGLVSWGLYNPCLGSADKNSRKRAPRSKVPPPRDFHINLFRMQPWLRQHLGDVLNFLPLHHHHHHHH

The target of a further assay is T2, human C2 N325A (human, UniProt P06681 21-752).
T2 sequence: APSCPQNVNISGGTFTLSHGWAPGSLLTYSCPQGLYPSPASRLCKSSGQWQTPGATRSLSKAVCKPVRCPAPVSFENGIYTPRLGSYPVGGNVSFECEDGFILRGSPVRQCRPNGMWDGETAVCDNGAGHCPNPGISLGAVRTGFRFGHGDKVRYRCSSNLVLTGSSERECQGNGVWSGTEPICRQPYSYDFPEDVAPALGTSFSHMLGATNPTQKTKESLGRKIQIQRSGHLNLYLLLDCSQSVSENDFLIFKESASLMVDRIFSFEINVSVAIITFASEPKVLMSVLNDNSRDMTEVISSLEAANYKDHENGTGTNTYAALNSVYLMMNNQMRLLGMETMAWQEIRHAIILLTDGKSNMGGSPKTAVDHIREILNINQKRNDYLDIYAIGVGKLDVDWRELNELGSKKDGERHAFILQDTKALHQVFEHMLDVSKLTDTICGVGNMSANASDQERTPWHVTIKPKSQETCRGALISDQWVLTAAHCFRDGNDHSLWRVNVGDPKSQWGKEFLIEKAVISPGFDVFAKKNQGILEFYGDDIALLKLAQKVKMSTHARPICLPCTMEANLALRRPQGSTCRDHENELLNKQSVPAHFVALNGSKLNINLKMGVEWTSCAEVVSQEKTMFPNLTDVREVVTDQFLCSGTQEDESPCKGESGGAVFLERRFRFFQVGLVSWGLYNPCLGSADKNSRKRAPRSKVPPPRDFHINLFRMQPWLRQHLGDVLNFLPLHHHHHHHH

The target in a further assay is T3, human C2 S278A (human, UniProt P06681 21-752).
T3 sequence: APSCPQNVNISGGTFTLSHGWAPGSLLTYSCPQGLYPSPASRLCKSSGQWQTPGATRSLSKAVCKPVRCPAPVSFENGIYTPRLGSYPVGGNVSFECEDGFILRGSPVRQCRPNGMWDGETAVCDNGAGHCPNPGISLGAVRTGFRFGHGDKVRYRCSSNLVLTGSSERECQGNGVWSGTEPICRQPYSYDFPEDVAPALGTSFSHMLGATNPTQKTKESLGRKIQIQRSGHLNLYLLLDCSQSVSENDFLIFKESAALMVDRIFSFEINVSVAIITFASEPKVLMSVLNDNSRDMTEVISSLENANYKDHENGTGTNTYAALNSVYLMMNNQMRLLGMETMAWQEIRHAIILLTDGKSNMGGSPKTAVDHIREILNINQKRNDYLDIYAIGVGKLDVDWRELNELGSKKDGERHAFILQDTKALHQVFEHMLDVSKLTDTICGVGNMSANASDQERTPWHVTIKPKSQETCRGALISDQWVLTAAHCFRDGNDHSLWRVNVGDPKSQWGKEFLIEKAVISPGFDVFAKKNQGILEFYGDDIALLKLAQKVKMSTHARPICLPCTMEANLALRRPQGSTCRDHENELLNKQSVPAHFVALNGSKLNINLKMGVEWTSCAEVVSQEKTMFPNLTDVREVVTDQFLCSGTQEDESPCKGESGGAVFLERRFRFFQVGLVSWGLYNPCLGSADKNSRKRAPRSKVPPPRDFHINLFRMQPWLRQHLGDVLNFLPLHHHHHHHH

A further assay concerns the target T4, human C2 D404A (human, UniProt P06681 21-752).
T4 sequence: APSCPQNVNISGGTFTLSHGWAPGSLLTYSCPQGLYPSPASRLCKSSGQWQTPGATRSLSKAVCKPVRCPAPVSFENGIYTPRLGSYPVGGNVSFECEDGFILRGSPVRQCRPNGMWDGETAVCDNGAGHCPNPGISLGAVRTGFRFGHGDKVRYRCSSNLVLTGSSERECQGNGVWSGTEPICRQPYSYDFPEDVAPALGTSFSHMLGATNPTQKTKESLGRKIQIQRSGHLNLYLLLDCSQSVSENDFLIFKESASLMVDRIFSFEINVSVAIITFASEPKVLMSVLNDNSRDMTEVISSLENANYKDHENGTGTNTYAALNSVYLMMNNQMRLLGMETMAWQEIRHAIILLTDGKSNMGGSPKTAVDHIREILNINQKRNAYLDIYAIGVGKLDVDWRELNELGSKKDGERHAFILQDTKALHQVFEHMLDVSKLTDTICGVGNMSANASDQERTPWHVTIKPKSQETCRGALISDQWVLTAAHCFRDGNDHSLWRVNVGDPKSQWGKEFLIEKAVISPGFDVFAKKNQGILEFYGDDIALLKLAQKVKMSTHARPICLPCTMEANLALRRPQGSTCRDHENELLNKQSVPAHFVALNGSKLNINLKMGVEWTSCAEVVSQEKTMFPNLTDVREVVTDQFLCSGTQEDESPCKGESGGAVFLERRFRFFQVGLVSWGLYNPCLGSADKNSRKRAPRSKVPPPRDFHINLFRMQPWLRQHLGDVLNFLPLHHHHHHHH

B1: RF16-214 (antibody, V domains shown)
VH: EVQLLESGGGLVQPGGSLRLSCAASGFTFSWYQMMWVRQAPGKGLEWVSRIYPSGGGTAYADSVKGRFTISRDNSKNTLYLQMNSLRAEDTAVYYCARDAGYGDNWGQGTLVTVSS
VL: QSALTQPPSVSVSPGQTASITCSGDKLGEKYASWYQQKAGQSPVMVIYQDRKRPSGIPERFSGSNSGNTATLTISGTQAMDEADYYCQAWDTRAVVFGGGTKLTVLG
As for B1, the Fold diff with human C2 Q447A is 4 fold; with human C2 N325A, 11 fold; with human C2 S278A, 1 fold; with human C2 D404A it was 3 fold.
